These results are taken from US5618790A, “Protease mediated drug delivery system” (Queen's University at Kingston, priority 1994, dated 1997).

Data set [1] in a line: Solubility of the purified compound. It counts as physicochemical. The text has this: The purified compound was a purple-red powder that was quite soluble in water in neutral pH, in isotonic saline for injection (U.S.P.), and in fresh heparinized human blood and plasma. Aqueous solutions were strongly fluorescent when exposed to 410 nm light.
A short description of data set [2]: Fluorescence in heparinized whole blood and plasma. Particulars: heparinized whole blood and plasma samples; spectrophotofluorometer. It is filed as in vitro ADME. On the procedure: Aliquots of the porphyrin compound of Example 1 were added to heparinized whole blood and plasma samples which were then examined by spectrophotofluorometer.
The nature of data set [3]: Toxicity after intraperitoneal injection into mice. As to conditions: intraperitoneally, dosages up to 20 mg/kg body weight. It counts as in vivo. On the procedure:
The porphyrin compound of Example 1 was injected intraperitoneally into mice at dosages up to 20 mg/kg body weight.

Another data set relates to Clostridium perfringens. Particulars: mouse, in vivo, 20 mg/kg.

Starred links: 1 amine or outer side, 2 acyl side, 3 side chain; linkers in the order of their positions; H or OH if unused. Positions of bridges follow the written chain, without caps; N, C: chain ends. Residues, ends and D or L forms follow the SMILES beside them. Chains are numbered I, II in the order given. X1 = CCC1=C(C)c2cc3[nH]c(cc4nc(cc5[nH]c(cc1n2)c(C)c5CCC(=O)[*:1])C(CCC(=O)[*:2])=C4C)c(C)c3CC

As for `CCC1=C(C)c2cc3[nH]c(cc4nc(cc5[nH]c(cc1n2)c(C)c5CCC(=O)NCC(=O)N1CCC[C@H]1C(=O)N[C@@H](CC(C)C)C(=O)NCC(=O)N1CCC[C@H]1C(=O)N[C@@H](C)C(=O)N[C@@H](CCCCN)C(=O)N[C@@H](CCCCN)C(=O)N[C@@H](CCCCN)C(=O)N[C@@H](CCCCN)C(=O)O)C(CCC(=O)NCC(=O)N1CCC[C@H]1C(=O)N[C@@H](CC(C)C)C(=O)NCC(=O)N1CCC[C@H]1C(=O)N[C@@H](C)C(=O)N[C@@H](CCCCN)C(=O)N[C@@H](CCCCN)C(=O)N[C@@H](CCCCN)C(=O)N[C@@H](CCCCN)C(=O)O)=C4C)c(C)c3CC` [porphyrin compound of Example 1, mesoporphyrin IX (Gly--Pro--Leu--Gly--Pro--Ala--Lys--Lys--Lys--Lys)2] (I: GPLGPAKKKK-OH / II: GPLGPAKKKK-OH; linker I:N-II:N via X1), the solubility entry in data set [1] (fresh heparinized human blood and plasma) was “quite soluble”; in data set [1] (isotonic saline for injection (U.S.P.)) it was “quite soluble”; in data set [1] (water in neutral pH), “quite soluble”. Besides, the “effect on fluorescence intensity (stability of the collagenase sensitive peptide)” value in data set [2] was “No effect on fluorescence intensity”. In addition, the toxic effects entry in data set [3] is “No toxic effects were observed”. Moreover, the “increase of porphyrin fluorescence relative to the background fluorescence (factor)” value in the data set with Clostridium perfringens is listed as “three”.
